A short description of data set [1]: Standard protocol for determination of kcat and KM (continuous spectrophotometric assay, Acetyl CoA hydrolysis at 235 nm). In kind it is biochemical. To be noted: purified protein, about 23° C., 0.2 mM acetyl CoA; for Kcat: 20 mM HEPES pH 6.8, 10% ethylene glycol; for Km: pH 6.8, glyphosate 0.125 to 10 mM. In short, it runs like this:
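KM from initial rates over 0.125–10 mM glyphosate, fitted by Lineweaver-Burke transformation of Michaelis-Menten; kcat/KM computed as kcat divided by KM. Continuous spectrophotometric read of acetyl-CoA hydrolysis at 235 nm.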

A further data set relates to soybean plants. The data set can be described thus: Greenhouse glyphosate spray of T0 soybean plants expressing GAT transgenes (discoloration score). It counts as in vivo. Conditions: for number of events @ 3-6 / number of events @ 7-8: count in parentheses. The protocol:
Soybean plants expressing GAT variant transgenes were produced using the method of particle gun bombardment (see Klein et al. (1987) Nature 327:70-73) using a DuPont Biolistic PDS1000/He instrument. The selection agent used during the transformation process was hygromycin. Either the hygromycin selectable marker gene remained in the transgenic events or the hygromycin gene was excised by methods known in the art. DNA fragments were prepared with a synthetic constitutive promoter, a GAT variant and PinII terminator. The selectable marker gene, comprising the 35S CaMV promoter, HPT gene and NOS terminator, was cobombarded with the GAT gene variant as described above. Bombarded soybean embryogenic suspension tissue was cultured for one week in the absence of selection agent. Embryogenic suspension tissue was placed in liquid selection medium for 6 weeks. Putative transgenic suspension tissue was sampled for PCR analysis to determine the presence of the GAT gene. Putative transgenic suspension culture tissue was maintained in selection medium for 3 weeks to obtain enough tissue for plant regeneration. Suspension tissue was matured for 4 weeks using standard procedures; matured somatic embryos were desiccated for 4-7 days and then placed on germination induction medium for 2-4 weeks. Germinated plantlets were transferred to soil in cell pack trays for 3 weeks for acclimatization. Plantlets were potted to 10-inch pots in the greenhouse for evaluation of glyphosate resistance.
To determine the level of glyphosate resistance of transgenic soybeans expressing the GAT variant transgenes, T0 plants were sprayed with glyphosate (Roundup ULTRA MAX™) in the greenhouse. Plant resistance levels were evaluated by […] • 7=minor leaf/stem discoloration • 5=worse leaf/stem discoloration • 3=severely discolored plant or dying plant • 1=dead plant
One to four plants were sent to the greenhouse from each independent transgenic event. An additional 1-2 plants per event were grown in controlled environment growth chambers for seed production and were not sprayed with glyphosate. The greenhouse plants were sprayed at 1×, 2× or 4× glyphosate (1× glyphosate=26 ounces/acre of RoundUp ULTRA MAX™) 3-4 weeks after transfer to soil. The T0 plant discoloration scores with 2× and 4× spray rates are shown in Table 10 and Table 11, respectively.

Changes are numbered by the printed parent chain.

18 molecules from US8008547B2, “Glyphosate-N-acetyltransferase (GAT) genes” (E.I. duPont de Nemours, priority 2000, dated 2011) can be followed below.

B1: SEQ ID NO: 342: GAT polypeptide (protein)
chain: MIDVKPINAEDTYEIRHRILRPNQPLEACKYETDLLGGTFHLGGYYQGKLISIASFHQAEHSELEGQKQYQLRGMATLEGYREQKAGSTLIRHAEELLRKKGADLLWCNARTSVSGYYEKLGFSEQGEVYDIPPIGPHILMYKKLT
modifications: 16H3
notes: GAT polypeptide
In general, Km refers to the concentration of substrate that gives half-maximal velocity. For the molecule B1, in data set [1], the Kcat came to 3.5 min⁻¹ and the Km came out at 2.9 mM.

B2: SEQ ID NO: 348: GAT polypeptide (protein)
chain: B1 chain with D3E, K30M, Q47R
modifications: 20F2
notes: GAT polypeptide
As to B2, in data set [1], the Kcat amounted to 3.9 min⁻¹ and the Km is 1.9 mM.

B3: SEQ ID NO: 344: GAT polypeptide (protein)
chain: B1 chain with D3E, Q47R, Q58K, V114A, T146A
modifications: 18D6
notes: GAT polypeptide
With B3, in data set [1], the Kcat amounted to 9.6 min⁻¹ and the Km was found to be 1.2 mM.

B4: SEQ ID NO: 353: GAT polypeptide (protein)
chain: B1 chain with D3E, Q47R, Q58N, V114A, T146A
modifications: 24E7
notes: GAT polypeptide
As for B4, in data set [1], the Kcat worked out at 8.9 min⁻¹ and the Km was 0.9 mM.

B5: SEQ ID NO: 355: GAT polypeptide (protein)
chain: B1 chain with D3E, I53T, E60G, Q84R, T112I, V114A, E119K, E128G
modifications: 2H3
notes: GAT polypeptide
B5: in data set [1], the Kcat is 16.1 min⁻¹ and the Km was found to be 0.9 mM.

B6: SEQ ID NO: 346: GAT polypeptide (protein)
chain: B1 chain with D3E, R18C, K30M, Q58K, E119K
modifications: 19D5
notes: GAT polypeptide
B6: in data set [1], the Kcat amounted to 2.2 min⁻¹ and the Km is 1.7 mM.

B7: SEQ ID NO: 266: GAT polypeptide (protein)
chain: B1 chain with D3E, G37R, T39A, Q47R, I51V, S62P, V114A, E119K, I132T, I135T
modifications: 14_2C1
notes: GAT polypeptide
For B7, in data set [1], the Kcat stood at 133.4 min⁻¹ and the Km worked out at 3.1 mM.

B8: SEQ ID NO: 349: GAT polypeptide (protein)
chain: B1 chain with D3E, T39A, E119K
modifications: 21E11
notes: GAT polypeptide
For the molecule B8, in data set [1], the Kcat is 1.1 min⁻¹ and the Km turned out to be 0.7 mM.

B9: SEQ ID NO: 352: GAT polypeptide (protein)
chain: B1 chain with D3E, K30M, Q47R, T112I, E119K, E128G, T146A
modifications: 24C6
notes: GAT polypeptide
For B9, in data set [1], the Kcat was found to be 2.7 min⁻¹ and the Km amounted to 1.3 mM.

B10: SEQ ID NO: 356: GAT polypeptide (protein)
chain: B1 chain with D3E, K30M, Y31F, T39A, E119K
modifications: 30G8
notes: GAT polypeptide
B10: in data set [1], the Kcat worked out at 10.2 min⁻¹ and the Km amounted to 1.6 mM.

B11: SEQ ID NO: 351: GAT polypeptide (protein)
chain: B1 chain with D3E, Q47R, G48D, K49R, E119K
modifications: 24C1
notes: GAT polypeptide
As to B11, in data set [1], the Kcat was determined as 1.7 min⁻¹ and the Km amounted to 0.9 mM.

B12: SEQ ID NO: 350: GAT polypeptide (protein)
chain: B1 chain with D3E, K30M, Q58K, V114A, T146A
modifications: 23H11
notes: GAT polypeptide
For B12, in data set [1], the Kcat came to 7.1 min⁻¹ and the Km stood at 2.2 mM.

B13: SEQ ID NO: 347: GAT polypeptide (protein)
chain: B1 chain with D3E, K30M, Q58N, A103V, E119K, E128G, V129I, T146A
modifications: 20A12
notes: GAT polypeptide
In the case of B13, in data set [1], the Kcat was determined as 2.8 min⁻¹ and the Km is 1.1 mM.

B14: SEQ ID NO: 345: GAT polypeptide (protein)
chain: B1 chain with D3E, Q47R, S52C, S115R, E128G, T146A
modifications: 19C6
notes: GAT polypeptide
As for B14, in data set [1], the Kcat was determined as 2.2 min⁻¹ and the Km was found to be 1.1 mM.

B15: SEQ ID NO: 265: GAT polypeptide (protein)
chain: B1 chain with D3E, G38S, Q47R, H57N, S62P, V114A, E119K, I132T, I135V
modifications: 14_2A5
notes: GAT polypeptide
Take B15: in data set [1], the Kcat stood at 280.8 min⁻¹ and the Km was determined as 1.6 mM.

B16: SEQ ID NO: 343: GAT polypeptide (protein)
chain: B1 chain with D3E, N8S, K30M, T39A
modifications: 17C12
notes: GAT polypeptide
As for B16, in data set [1], the Kcat is 3.2 min⁻¹ and the Km was 1.4 mM.

B17: SEQ ID NO: 354: GAT polypeptide (protein)
chain: B1 chain with D3E, K30M, Q47R, G48D, K49R, V114A
modifications: 2_8C3
notes: GAT polypeptide
For the molecule B17, in data set [1], the Kcat worked out at 24.8 min⁻¹ and the Michaelis-Menten constant (Km) worked out at 1.5 mM.

B18: SEQ ID NO: 824: GAT gene variant expressed in transgenic soybean (nucleic acid)
DNA: ATGATAGAGGTGAAACCGATTAACGCAGAGGATACCTATGAACTAAGGCATAGAATACTCAGACCAAACCAGCCGATAGAAGCGTGTATGTTTGAAAGCGATTTACTTCGTGGTGCATTTCACTTAGGCGGCTTTTACAGGGGCAAACTGATTTCCATAGCTTCATTCCACCAGGCCGAGCACTCGGAACTCCAAGGCCAGAAACAGTACCAGCTCCGAGGTATGGCTACCTTGGAAGGTTATCGTGAGCAGAAAGCGGGATCAACTCTAGTTAAACACGCTGAAGAAATCCTTCGTAAGAGGGGGGCGGACATGCTTTGGTGTAATGCGAGGACATCCGCCTCAGGCTACTACAAAAAGTTAGGCTTCAGCGAGCAGGGAGAGATATTTGACACGCCGCCAGTAGGACCTCACATCCTGATGTATAAAAGGATCACATAA
modifications: Synthetic DNA Sequence; CDS (1)...(441); 18-28D9c
notes: GAT gene variant expressed in transgenic soybean
On to B18, for which the “% EVENTS @ 7-8” value in the data set with soybean plants (10 days after 2X glyphosate (1× = 26 ounces/acre), 7=minor leaf/stem discoloration) is recorded as 8%. The “% EVENTS @ 3-6” value in the data set with soybean plants (10 days after 2X glyphosate, 5=worse discoloration, 3=severely discolored or dying) amounted to 74%. Further, in the data set on soybean plants (10 days after 2X glyphosate), the “number of events @ 3-6” value came to 23 and the “number of events @ 7-8” value is given as 3. Also, in the data set on soybean plants (10 days after 4X glyphosate), the “% EVENTS @ 3-6” value is given as 43%, the “% EVENTS @ 7-8” value was determined as 8%, the “number of events @ 3-6” value was 10 and the “number of events @ 7-8” value is recorded as 2.
